Test results from patent publication US20090092595A1, “Suppression of sPLA2-integrin binding for treating an inflammatory condition” (REGENTS OF THE UNIVERSITY OF CALIFORNIA, priority 2007, published 2009).

Target: T1, αvβ3 on β3-CHO cells (UniProt A0A9J7JSN3+P05106)
T1 construct: expressed in transfected cells; host or cells: CHO
T1 sequence (P05106 27-788): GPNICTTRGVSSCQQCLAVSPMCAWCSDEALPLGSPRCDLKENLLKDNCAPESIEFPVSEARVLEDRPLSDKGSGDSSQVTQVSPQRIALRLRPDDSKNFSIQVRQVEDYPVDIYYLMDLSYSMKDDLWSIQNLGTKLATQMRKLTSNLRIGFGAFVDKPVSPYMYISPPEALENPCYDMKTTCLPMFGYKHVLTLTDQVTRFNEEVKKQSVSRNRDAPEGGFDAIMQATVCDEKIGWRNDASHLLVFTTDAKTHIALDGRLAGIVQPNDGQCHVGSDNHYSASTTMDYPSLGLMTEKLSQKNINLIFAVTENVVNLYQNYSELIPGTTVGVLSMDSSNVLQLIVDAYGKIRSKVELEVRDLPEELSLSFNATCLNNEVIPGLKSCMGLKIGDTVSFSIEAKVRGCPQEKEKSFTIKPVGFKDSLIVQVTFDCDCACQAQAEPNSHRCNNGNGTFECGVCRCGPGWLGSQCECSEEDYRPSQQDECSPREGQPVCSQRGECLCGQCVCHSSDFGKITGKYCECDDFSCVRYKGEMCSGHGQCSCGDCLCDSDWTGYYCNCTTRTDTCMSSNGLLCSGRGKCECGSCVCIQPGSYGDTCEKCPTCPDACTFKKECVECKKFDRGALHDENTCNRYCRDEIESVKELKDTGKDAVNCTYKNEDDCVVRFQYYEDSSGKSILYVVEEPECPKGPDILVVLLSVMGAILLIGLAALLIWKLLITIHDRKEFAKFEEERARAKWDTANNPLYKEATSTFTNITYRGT
T1 sequence (A0A9J7JSN3 31-1043): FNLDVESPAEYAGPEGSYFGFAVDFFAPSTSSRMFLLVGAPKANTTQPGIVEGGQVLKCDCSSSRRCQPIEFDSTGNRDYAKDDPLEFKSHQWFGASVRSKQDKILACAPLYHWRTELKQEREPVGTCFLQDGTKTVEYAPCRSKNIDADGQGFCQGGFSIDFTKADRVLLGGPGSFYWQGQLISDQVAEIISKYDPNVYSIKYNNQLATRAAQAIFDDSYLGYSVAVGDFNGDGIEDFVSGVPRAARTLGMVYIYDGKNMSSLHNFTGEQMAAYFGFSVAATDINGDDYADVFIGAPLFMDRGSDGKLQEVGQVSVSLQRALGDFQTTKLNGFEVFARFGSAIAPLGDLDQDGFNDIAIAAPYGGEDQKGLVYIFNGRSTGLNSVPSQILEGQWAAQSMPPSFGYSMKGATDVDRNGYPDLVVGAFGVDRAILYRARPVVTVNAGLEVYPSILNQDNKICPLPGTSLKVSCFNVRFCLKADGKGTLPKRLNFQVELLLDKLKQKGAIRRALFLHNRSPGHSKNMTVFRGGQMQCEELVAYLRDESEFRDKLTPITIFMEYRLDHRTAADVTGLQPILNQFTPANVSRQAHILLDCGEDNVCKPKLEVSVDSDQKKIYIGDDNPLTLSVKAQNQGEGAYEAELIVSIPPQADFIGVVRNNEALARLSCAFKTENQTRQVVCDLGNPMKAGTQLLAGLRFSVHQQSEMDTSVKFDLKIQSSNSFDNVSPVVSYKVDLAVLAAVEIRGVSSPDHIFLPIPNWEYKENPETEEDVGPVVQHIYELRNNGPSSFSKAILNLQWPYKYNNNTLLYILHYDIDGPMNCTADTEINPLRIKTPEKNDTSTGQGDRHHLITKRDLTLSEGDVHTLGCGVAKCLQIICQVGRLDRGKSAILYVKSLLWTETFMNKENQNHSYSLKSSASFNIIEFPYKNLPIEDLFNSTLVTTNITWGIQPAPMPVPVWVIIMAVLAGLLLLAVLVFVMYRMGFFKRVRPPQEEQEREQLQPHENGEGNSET
Test: Binding of FITC-labeled sPLA2-IIA to αvβ3 on the cell surface (flow cytometry)
Assay type: cell-based, human
Details: 10 μg/ml, 10 mM Mg2+, room temperature, 30 min
From the text: FIG. 1. sPLA2-IIA binding to integrin αvβ3. a) Cell adhesion to sPLA2-IIA in an αvβ3- and proteoglycans-dependent manner. Wells of a 96-well microtiter plate were coated with sPLA2-IIA at indicated coating concentrations. Remaining protein-binding sites were blocked with BSA. CHO cells expressing recombinant αvβ3 (β3-CHO), mock-transfected CHO cells, proteoglycans-deficient CHO cell variant (pgs745), expressing recombinant αvβ3 (β3-745), and mock-transfected pgs745 cells (10^5 cells per well in 100 μl Tyrodes-HEPES with 1 mM MgCl2) were added to the wells. After incubating for 1 h at 37° C., unbound cells were removed by gentle rinsing and bound cells were quantified using endogenous phosphatase activity (Prater, C. A. et al., J. Cell Biol., 112:1031-1040 (1991)). Data is shown as means+/−SEM of triplicate experiments. b) Effect of anti-(33 mAb 7E3 on adhesion of β3-CHO cells to immobilized sPLA2-IIA. […] Bound FITC (FL1) and PE (FL2) were quantified in flow cytometry. […] Bound αvβ3 was detected using peroxidase-conjugated anti-6His antibody. Bound peroxidase activity was measured. […]
Binding of FITC-labeled sPLA2-IIA to integrins on the cell surface sPLA2-IIA was labeled with FITC using Fluorescein labeling kit (Pierce) according to the manufacturer's instructions. […] Bound FITC (FL1) and PE (FL2) were quantified in flow cytometry.

binding to cells expressing high-level αvβ3 vs little αvβ3: much higher levels
B1: FITC-sPLA2-IIA: sPLA2-IIA labeled with FITC using Fluorescein labeling kit (conjugate)
chain: NLVNFHRMIKLTTGKEAALSYGFYGCHCGVGGRGSPKDATDRCCVTHDCCYKRLEKRGCGTKFLSYKFSNSGSRITCAKQDSCRSQLCECDKAAATCFARNKTTYNKKYQYYSNKHCRGSTPRC
modifications: left off: small tags and cut ends
notes: sPLA2-IIA labeled with FITC using Fluorescein labeling kit
